Assay results reported in patent US20200023071A1 (INNATE PHARMA, published 2020).

B1: chimeric antibody 18E8 (human IgG1 constant regions) conjugated to a PBD dimer, DAR about 2 (antibody, V domains shown)
VH: DVQLQESGPDLVNPSQSLSLICTVTGYSITSDYSWHWIRQFPGNKLEWMGNIHYSGRINYNPSLRSRISITRDTSKNQFFLQLISVTTEDTATYYCATRRTFGNFEDYWGQGTTLTVSS
VL: QIVLSQSPATLSVSPGEKVTMTCRSSSSVNYMHWYQQKPGSSPKPWIYATSTLASGVPARFSGSGSGTSYSLTISRVEAEDAATYYCQQWSSNPLTFGAGTKLELK
modifications: PBD dimer via NH2-PEG-N3 / DBCO-val-ala linker on Q295 (Kabat EU numbering) of each heavy chain constant region
B2: chimeric antibody 19E9 (human IgG1 constant regions) conjugated to a PBD dimer, DAR about 2 (antibody, V domains shown)
VH: DVQLQESGPGLVKPSQSLSLTCTVTGYSITSDYAWNWIRQFPGNKLEWMGFVSYSGTTKYNPSLKSRISITRDTSENQFFLQLNSVTSEDTATYYCARGYGFDYWGQGTTLTVSS
VL: EIVLTQSPTTMAASPGEKITITCSATSSISSIYFHWYQQRPGFSPKLLIYRTSNLASGVPARFSGSGSGTSYSLTIGTMEAEDVATYYCQQGTTIPFTFGSGTKLEIK
modifications: PBD dimer via NH2-PEG-N3 / DBCO-val-ala linker on Q295 (Kabat EU numbering) of each heavy chain constant region
B3: chimeric antibody 6E4 (human IgG1 constant regions) conjugated to a PBD dimer, DAR about 2 (antibody, V domains shown)
VH: EVQLVESGGALVKPGGSLKLSCAASGFTFSYYAMSWVRQTPEKRLEWVATISRGGNYIYYTDSVKGRFTISRDNAKNTLYLQMTSLRSEDTAMFYCASISDYDGAWLAYWGQGTLVTV
VL: DVLMTQTPLSLPVSLGDQASISCRSSQSIIHTNGNTYLEWYLQKPGQSPKLLIYKISNRFSGVPDRFSGSGSGTDFTLKISRVEAEDLGVYYCFQGSHVPWTFGGGTKLEIK
modifications: PBD dimer via NH2-PEG-N3 / DBCO-val-ala linker on Q295 (Kabat EU numbering) of each heavy chain constant region
B4: chimeric antibody 9C10 (human IgG1 constant regions) conjugated to a PBD dimer, DAR about 2 (antibody, V domains shown)
VH: QVQLQQPGAELVRPGTSVNLSCKASGYSFTRYWMNWVKQRPGQGLEWIGMIHPSDSETRLNQKFKDKATLTVDKSSSTAYMQLSSPTSEDSAVYYCGYGNFFYVMDYWGQGTSVTVSS
VL: DILLTQSPAILSVSPGERVSFSCRASQSIGTSIHWYQQRTNGSPRLLIKFASESISGIPSRFSGSGSGTDFTLNINSVESEDIADYYCQQSNFWPFTFGSGTKLEVK
modifications: PBD dimer via NH2-PEG-N3 / DBCO-val-ala linker on Q295 (Kabat EU numbering) of each heavy chain constant region

What follows are binders tested against T1, human MICA endogenously expressed on the surface of HCT116 colon carcinoma cells (human, UniProt Q29983 24-383) (assay: cell-based or functional assay).
T1 sequence (looked up): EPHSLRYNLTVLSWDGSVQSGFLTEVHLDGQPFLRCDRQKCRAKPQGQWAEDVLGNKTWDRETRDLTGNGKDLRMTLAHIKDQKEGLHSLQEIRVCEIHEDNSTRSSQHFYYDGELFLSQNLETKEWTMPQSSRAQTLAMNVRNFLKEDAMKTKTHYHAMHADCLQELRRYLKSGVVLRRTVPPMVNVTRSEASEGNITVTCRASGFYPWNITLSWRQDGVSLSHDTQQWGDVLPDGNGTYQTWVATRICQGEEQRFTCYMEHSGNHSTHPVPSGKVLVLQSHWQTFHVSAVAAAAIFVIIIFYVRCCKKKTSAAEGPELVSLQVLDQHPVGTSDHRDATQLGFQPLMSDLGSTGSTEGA
With B1 the “EC50 (also referred to as IC50) of cytotoxicity towards HCT116 cells, cell confluence over one week (IncuCyte)” value (from here on “EC50 … over one week (IncuCyte)”) was 3.77 ng/mL.
In the case of B2, the “EC50 … over one week (IncuCyte)” value is reported as 0.475 ng/mL.
With B3 the “EC50 … over one week (IncuCyte)” value was 2.25 ng/mL.
For B4, the “EC50 … over one week (IncuCyte)” value was 7.77 ng/mL.
